The text below walks through data of paper doi:10.1101/2021.11.23.469668 (bioRxiv, 2021).

What all share (assay): SEC
In data set [1] the target is Atlas GC GPL binding pocket mutant R86A (Ancylostoma ceylanicum (endogenous retrovirus Atlas virus)).
For data set [2], the target named is Atlas GC fusion loop mutant F136A/F137A (Ancylostoma ceylanicum (endogenous retrovirus Atlas virus)).
Data set [3] concerns the molecule itself.

Take “Atlas GC GPL binding pocket mutant R86A (domain or fragment)”: the stoichiometry N in data set [1] was 3.

In turn, “Atlas GC fusion loop mutant F136A/F137A (domain or fragment)” registered a stoichiometry N in data set [2] of 3.

B1: Atlas virus GC ectodomain fragment (polyprotein residues 2330-2772) (domain or fragment)
chain: CSEVISVTSTEEVCTIQENKETCTFNHATTITLQPLQQQTCLTLNDPEKRPMGMLTVKPDGIKFRCNKKIEFFTRDHQIVSESVHRCHRAGSCHSDECHHVKDTDALPEFSSEANSRPGYTSCSSSCGCITCDGCFFCEPSCLFHRLYAIPTTPTIYSIFYCPSWELEVDAEISLQREDETTTSTIRLLPGRTSTWNNIRFSLIGTIVPQLPILSSAFVTNGRQTSIVKPAYAGQLQSNSVGQLQCPNLEAAKQFECHFSRNLCTCTNALHKVSCTCYDGSVEDHMEALPLPQTSKNFLVFEKDRNIYAKTHVGSALQLHIVAQDLKITTVKHTSHCQVEASDLSGCYSCTSGASLTLSCKSDNGEVLANMKCNEQTHVIRCTESGFINNILLMFDTSEVAADCTAACPGGIVNFTIKGLLAFVNERIISQSYSATDVERNIK
modifications: N-linked glycan at Asn414 (GC numbering)
Turning to B1, the “stoichiometry N” value in data set [3] is 3.

A word on the stoichiometry N: it is a count of units in the complex or per binding partner.
